# Source: patent US20110207796A1, “ALPHA-SYNUCLEIN KINASE” (Elan Pharma International Limited, priority 2008, published 2011)
# Target: human alpha-synuclein (wild-type, recombinant) (human)
# Test: cell-based or functional assay
# Polo like kinase 2 (PLK2) (enzyme), sequence (chain): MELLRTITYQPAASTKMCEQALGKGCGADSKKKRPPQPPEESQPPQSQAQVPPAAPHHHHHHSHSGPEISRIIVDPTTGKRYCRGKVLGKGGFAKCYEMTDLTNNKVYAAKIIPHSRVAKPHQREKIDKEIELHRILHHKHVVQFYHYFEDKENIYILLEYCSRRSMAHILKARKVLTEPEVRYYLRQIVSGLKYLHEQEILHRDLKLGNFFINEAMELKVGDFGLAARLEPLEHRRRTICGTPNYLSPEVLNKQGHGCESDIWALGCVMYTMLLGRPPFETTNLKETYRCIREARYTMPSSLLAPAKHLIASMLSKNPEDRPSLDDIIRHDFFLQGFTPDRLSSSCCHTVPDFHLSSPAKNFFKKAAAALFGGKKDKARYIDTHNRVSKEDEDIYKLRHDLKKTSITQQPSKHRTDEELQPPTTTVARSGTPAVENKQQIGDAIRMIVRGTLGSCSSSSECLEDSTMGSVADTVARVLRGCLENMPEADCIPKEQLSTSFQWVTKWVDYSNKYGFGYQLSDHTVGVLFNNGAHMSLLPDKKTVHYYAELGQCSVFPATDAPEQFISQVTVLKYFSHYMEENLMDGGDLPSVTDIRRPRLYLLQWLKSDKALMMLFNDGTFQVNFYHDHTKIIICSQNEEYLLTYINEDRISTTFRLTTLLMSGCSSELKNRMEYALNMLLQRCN
# CDC7 cell division cycle 7-like 1, sequence (O00311 whole entry): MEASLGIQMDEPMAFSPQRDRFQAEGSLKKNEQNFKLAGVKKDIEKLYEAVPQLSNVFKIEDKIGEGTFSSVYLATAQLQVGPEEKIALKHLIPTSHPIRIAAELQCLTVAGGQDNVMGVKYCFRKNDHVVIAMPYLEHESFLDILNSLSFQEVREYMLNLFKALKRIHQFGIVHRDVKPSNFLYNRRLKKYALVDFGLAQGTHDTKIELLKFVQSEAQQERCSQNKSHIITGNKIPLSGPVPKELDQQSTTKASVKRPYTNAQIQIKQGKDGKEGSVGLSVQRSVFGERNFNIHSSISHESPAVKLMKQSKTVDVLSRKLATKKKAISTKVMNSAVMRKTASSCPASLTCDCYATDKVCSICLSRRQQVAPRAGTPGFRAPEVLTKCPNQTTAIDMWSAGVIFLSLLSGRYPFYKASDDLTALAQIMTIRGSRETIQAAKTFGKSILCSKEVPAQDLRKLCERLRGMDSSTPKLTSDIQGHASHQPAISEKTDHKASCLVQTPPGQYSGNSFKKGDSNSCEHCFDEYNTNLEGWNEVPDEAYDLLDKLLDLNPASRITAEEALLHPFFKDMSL
# Aortic preferentially expressed gene 1, sequence (Q15772 other isoform, or with tags, fused parts or gaps limits assumed): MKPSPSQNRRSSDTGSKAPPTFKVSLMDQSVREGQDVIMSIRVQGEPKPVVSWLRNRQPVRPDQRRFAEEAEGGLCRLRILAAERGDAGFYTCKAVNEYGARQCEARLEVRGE
# G protein-coupled receptor kinase 6, sequence (P43250 whole entry): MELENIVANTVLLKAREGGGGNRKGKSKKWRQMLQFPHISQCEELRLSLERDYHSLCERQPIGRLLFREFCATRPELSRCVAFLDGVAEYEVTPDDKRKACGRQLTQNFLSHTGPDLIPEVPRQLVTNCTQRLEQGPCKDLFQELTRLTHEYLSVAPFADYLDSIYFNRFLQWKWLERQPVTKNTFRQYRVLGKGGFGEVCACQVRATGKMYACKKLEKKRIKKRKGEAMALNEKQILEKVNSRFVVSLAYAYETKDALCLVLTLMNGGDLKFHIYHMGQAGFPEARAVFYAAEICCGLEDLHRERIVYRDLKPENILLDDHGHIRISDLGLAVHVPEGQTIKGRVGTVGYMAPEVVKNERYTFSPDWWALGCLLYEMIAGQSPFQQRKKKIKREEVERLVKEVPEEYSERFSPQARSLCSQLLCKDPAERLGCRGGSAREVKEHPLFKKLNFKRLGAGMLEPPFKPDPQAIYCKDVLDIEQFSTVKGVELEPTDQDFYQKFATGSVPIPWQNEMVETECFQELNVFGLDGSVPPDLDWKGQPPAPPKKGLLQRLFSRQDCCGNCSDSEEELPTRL
"percent phospho-synuclein by ELISA, cDNA transfected into PEAK-Syn cells","percentage of phospho-synuclein by ELISA, cDNA transfected into PEAK-Syn cells",Substance,also measured
33.2%,–,Polo like kinase 2 (PLK2) (enzyme),"percent phospho-synuclein by ELISA, PLK2 alone transfected into HEK-synuclein cells: 18.6%; percent phospho-synuclein by ELISA, PLK2 and synuclein co-transfected into naive HEK cells: 60%; percent synuclein phosphorylation by ELISA, PLK2 positive control in HEK-syn cells: 65.8%; phospho-synuclein by ELISA, PLK2 cDNA transfected into 293-synuclein cells: 4.3 fold"
–,8.9%,Aortic preferentially expressed gene 1 (from UniProt Q15772 1-113) (enzyme),–
–,8.9%,CDC7 cell division cycle 7-like 1 (from UniProt O00311 1-574) (enzyme),–
18.9%,–,G protein-coupled receptor kinase 6 (from UniProt P43250 1-576) (enzyme),–
